Assay results published in paper PMC6939906, “Leucine zipper transcription factor-like 1 binds adaptor protein complex-1 and 2 and participates in trafficking of transferrin receptor 1” (PLoS ONE, 2020).

Key:
Details in all cases: both partners purified
[1] = target: T1, GST-β1 (glutathione S-transferase fused β1 subunit of AP-1) (human, UniProt Q10567 1-949); test: pull-down; Factor Xa cleaved MBP-LZTFL1 incubated with GST-fused β1 subunit of AP-1 held on Glutathione Sepharose 4B
T1 construct: cloned in pGEX-6P-1; also called GST-β1 (AP-1); GST-fused β1 subunit of AP-1; source: E. coli, purified (Glutathione Sepharose 4B)
T1 sequence (looked up): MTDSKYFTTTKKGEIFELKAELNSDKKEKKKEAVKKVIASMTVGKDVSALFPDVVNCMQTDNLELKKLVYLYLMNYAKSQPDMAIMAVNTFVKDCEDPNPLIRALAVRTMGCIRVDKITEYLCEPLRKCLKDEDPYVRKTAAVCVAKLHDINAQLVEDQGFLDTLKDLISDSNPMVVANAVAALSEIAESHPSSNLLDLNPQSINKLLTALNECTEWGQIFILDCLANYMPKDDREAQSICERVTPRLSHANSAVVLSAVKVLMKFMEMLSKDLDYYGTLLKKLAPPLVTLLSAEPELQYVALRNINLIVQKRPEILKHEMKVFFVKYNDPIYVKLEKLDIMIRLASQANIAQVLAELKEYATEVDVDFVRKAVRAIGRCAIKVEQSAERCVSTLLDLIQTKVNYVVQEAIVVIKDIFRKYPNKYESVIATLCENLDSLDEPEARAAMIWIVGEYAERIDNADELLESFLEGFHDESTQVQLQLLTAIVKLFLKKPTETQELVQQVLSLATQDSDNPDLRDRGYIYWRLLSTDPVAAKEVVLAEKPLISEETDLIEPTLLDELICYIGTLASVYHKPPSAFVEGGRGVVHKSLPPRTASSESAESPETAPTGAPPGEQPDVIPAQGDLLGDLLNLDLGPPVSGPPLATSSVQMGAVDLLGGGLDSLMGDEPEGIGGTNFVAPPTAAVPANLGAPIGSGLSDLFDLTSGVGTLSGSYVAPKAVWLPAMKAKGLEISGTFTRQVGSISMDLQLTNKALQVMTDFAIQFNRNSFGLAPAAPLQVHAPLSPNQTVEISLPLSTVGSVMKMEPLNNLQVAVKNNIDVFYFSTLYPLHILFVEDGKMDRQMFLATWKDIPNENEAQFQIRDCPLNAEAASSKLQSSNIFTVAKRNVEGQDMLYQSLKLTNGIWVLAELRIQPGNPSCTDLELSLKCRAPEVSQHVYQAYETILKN

[2] = target: T1, GST-β1 (glutathione S-transferase fused …); test: pull-down; MBP-fused proteins held on amylose resin, purified GST-fused proteins added, overnight at 4°C; blots with anti-MBP and anti-GST
[3] = target: T2, GST-β2 (GST-fused β2 subunit of AP-2) (human, UniProt P63010 1-937); test: as above
T2 construct: cloned in pGEX-6P-1; also called GST-β2 (AP-2); AP2B1; source: E. coli, purified (Glutathione Sepharose 4B)
T2 sequence (looked up): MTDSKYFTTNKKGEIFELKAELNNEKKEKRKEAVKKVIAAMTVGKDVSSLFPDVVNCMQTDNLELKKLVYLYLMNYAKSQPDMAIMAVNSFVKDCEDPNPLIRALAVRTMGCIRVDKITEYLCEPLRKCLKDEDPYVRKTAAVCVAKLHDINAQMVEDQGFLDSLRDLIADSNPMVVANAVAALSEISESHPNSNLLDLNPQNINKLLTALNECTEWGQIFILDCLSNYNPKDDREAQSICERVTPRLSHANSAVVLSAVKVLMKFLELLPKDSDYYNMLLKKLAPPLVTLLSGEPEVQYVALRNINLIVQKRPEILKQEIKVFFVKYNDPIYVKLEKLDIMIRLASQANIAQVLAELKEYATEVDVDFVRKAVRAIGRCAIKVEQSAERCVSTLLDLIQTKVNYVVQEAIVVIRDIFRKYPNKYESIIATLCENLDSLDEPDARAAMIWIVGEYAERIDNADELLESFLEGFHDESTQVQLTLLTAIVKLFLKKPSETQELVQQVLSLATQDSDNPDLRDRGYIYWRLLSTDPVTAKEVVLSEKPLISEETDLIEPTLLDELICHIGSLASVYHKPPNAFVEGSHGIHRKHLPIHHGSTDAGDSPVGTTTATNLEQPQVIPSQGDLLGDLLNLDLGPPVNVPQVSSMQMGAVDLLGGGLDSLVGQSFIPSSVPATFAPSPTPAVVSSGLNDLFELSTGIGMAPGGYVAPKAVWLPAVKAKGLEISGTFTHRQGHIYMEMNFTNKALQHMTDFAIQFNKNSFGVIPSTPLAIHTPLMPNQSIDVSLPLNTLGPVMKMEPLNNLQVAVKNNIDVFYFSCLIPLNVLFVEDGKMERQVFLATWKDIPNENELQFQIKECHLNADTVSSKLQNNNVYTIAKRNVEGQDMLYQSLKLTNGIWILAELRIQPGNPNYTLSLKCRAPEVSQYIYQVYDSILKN

B1: LZTFL1 from purified MBP-LZTFL1 cleaved by Factor Xa (natural protein, human, UniProt Q9NQ48-1 1-299, looked up)
chain: MAELGLNEHHQNEVINYMRFARSKRGLRLKTVDSCFQDLKESRLVEDTFTIDEVSEVLNGLQAVVHSEVESELINTAYTNVLLLRQLFAQAEKWYLKLQTDISELENRELLEQVAEFEKAEITSSNKKPILDVTKPKLAPLNEGGTAELLNKEILRLQEENEKLKSRLKTIEIQATNALDEKSKLEKALQDLQLDQGNQKDFIKAQDLSNLENTVAALKSEFQKTLNDKTENQKSLEENLATAKHDLLRVQEQLHMAEKELEKKFQQTAAYRNMKEILTKKNDQIKDLRKRLAQYEPED
notes: human LZTFL1, wild type; also called Factor Xa cleaved MBP-LZTFL1; source: E. coli, purified as MBP fusion (amylose resin), cleaved with Factor Xa
binding result [1]: binds

B2: MBP-LZTFL1 (maltose-binding protein fused with human LZTFL1) (natural protein, UniProt Q9NQ48-1 1-299, looked up)
chain: MAELGLNEHHQNEVINYMRFARSKRGLRLKTVDSCFQDLKESRLVEDTFTIDEVSEVLNGLQAVVHSEVESELINTAYTNVLLLRQLFAQAEKWYLKLQTDISELENRELLEQVAEFEKAEITSSNKKPILDVTKPKLAPLNEGGTAELLNKEILRLQEENEKLKSRLKTIEIQATNALDEKSKLEKALQDLQLDQGNQKDFIKAQDLSNLENTVAALKSEFQKTLNDKTENQKSLEENLATAKHDLLRVQEQLHMAEKELEKKFQQTAAYRNMKEILTKKNDQIKDLRKRLAQYEPED
notes: human LZTFL1, wild type; cloned in pMAL-c2X; also called MBP-fused LZTFL1; wild-type LZTFL1; source: E. coli, purified (amylose resin)
binding result [2]: binds | binding result [3]: binds
